Laboratory results: US20140087995A1 (published 2014)
Numbered stars: 1 amine (or outer) side, 2 acyl side, 3 side chain; on linkers, the order of the positions; unused ones are H or OH. Bridge positions count the residues as written; N and C are the ends. Side chains are listed from the residue outwards. Ends that are not written are not given here. * marks the point of attachment. C20 diacid = O=C(O)CCCCCCCCCCCCCCCCCCC(=O)*; γGlu = O=C(O)[C@H](CCC(=O)[*:2])N[*:1]; AEEA = NCCOCCOCC(=O)O

T1: human calcitonin receptor (human, UniProt P30988 25-474)
T1 construct: whole, on cells; Used as cell membranes prepared from the transfected BHK cells (Assay VII), not as intact cells; also called hCTR; hCT
T1 sequence (looked up): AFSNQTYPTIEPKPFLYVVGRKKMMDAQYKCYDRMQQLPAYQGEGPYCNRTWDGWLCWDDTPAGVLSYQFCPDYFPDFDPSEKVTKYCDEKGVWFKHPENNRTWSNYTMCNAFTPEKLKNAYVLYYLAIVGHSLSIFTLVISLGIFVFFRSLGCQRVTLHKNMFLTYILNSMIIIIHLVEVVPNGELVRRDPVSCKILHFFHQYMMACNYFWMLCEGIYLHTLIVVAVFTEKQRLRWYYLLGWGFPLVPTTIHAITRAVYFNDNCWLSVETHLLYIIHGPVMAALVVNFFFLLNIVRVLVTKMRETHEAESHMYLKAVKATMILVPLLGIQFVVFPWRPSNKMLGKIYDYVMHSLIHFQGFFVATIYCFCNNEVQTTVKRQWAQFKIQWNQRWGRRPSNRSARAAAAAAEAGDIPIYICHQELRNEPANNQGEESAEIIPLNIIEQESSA


Biological target: T1, human calcitonin receptor
Test: SPA competition against 125I-calcitonin, membranes with human calcitonin receptor (Assay VII)
Method in brief: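 BHK hCTR membranes 35 ng/μL + SPA beads 0.05 mg/well; buffer 50 mM Hepes pH 7.4, 1 mM CaCl2, 5 mM MgCl₂, 0.1% OA, 0.02% Tween20. 120 min, 25° C., shaking. Scintillation count; IC50 by one-site binding competition.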

IC50 [nM]	Binder
30.9	K([γGlu-C20 diacid])CNTATCATQRLANFLRHSSPNFGAIPSSTNVGSNTY-NH2 (disulfide 2-7; N-terminus assumed; SMILES CC[C@H](C)[C@H](NC(=O)[C@H](C)NC(=O)CNC(=O)[C@H](Cc1ccccc1)NC(=O)[C@H](CC(N)=O)NC(=O)[C@@H]1CCCN1C(=O)[C@H](CO)NC(=O)[C@H](CO)NC(=O)[C@H](Cc1c[nH]cn1)NC(=O)[C@H](CCCNC(=N)N)NC(=O)[C@H](CC(C)C)NC(=O)[C@H](Cc1ccccc1)NC(=O)[C@H](CC(N)=O)NC(=O)[C@H](C)NC(=O)[C@H](CC(C)C)NC(=O)[C@H](CCCNC(=N)N)NC(=O)[C@H](CCC(N)=O)NC(=O)[C@@H](NC(=O)[C@H](C)NC(=O)[C@@H]1CSSC[C@H](NC(=O)[C@@H](N)CCCCNC(=O)CC[C@H](NC(=O)CCCCCCCCCCCCCCCCCCC(=O)O)C(=O)O)C(=O)N[C@@H](CC(N)=O)C(=O)N[C@@H]([C@@H](C)O)C(=O)N[C@@H](C)C(=O)N[C@@H]([C@@H](C)O)C(=O)N1)[C@@H](C)O)C(=O)N1CCC[C@H]1C(=O)N[C@@H](CO)C(=O)N[C@@H](CO)C(=O)N[C@H](C(=O)N[C@@H](CC(N)=O)C(=O)N[C@H](C(=O)NCC(=O)N[C@@H](CO)C(=O)N[C@@H](CC(N)=O)C(=O)N[C@H](C(=O)N[C@@H](Cc1ccc(O)cc1)C(N)=O)[C@@H](C)O)C(C)C)[C@@H](C)O, also called compound 48) [N^ε1-[(4S)-4-carboxy-4-(19-carboxynonadecanoylamino)butanoyl]-[Arg17,Pro21,Pro27]-h-amylin]
14.8	K([AEEA-γGlu-C20 diacid])RCNTATCATQRLANFLRHSSPNFGAIPSSTNVGSHTY-NH2 (disulfide 3-8; N-terminus assumed; SMILES CC[C@H](C)[C@H](NC(=O)[C@H](C)NC(=O)CNC(=O)[C@H](Cc1ccccc1)NC(=O)[C@H](CC(N)=O)NC(=O)[C@@H]1CCCN1C(=O)[C@H](CO)NC(=O)[C@H](CO)NC(=O)[C@H](Cc1c[nH]cn1)NC(=O)[C@H](CCCNC(=N)N)NC(=O)[C@H](CC(C)C)NC(=O)[C@H](Cc1ccccc1)NC(=O)[C@H](CC(N)=O)NC(=O)[C@H](C)NC(=O)[C@H](CC(C)C)NC(=O)[C@H](CCCNC(=N)N)NC(=O)[C@H](CCC(N)=O)NC(=O)[C@@H](NC(=O)[C@H](C)NC(=O)[C@@H]1CSSC[C@H](NC(=O)[C@H](CCCNC(=N)N)NC(=O)[C@@H](N)CCCCNC(=O)COCCOCCNC(=O)CC[C@H](NC(=O)CCCCCCCCCCCCCCCCCCC(=O)O)C(=O)O)C(=O)N[C@@H](CC(N)=O)C(=O)N[C@@H]([C@@H](C)O)C(=O)N[C@@H](C)C(=O)N[C@@H]([C@@H](C)O)C(=O)N1)[C@@H](C)O)C(=O)N1CCC[C@H]1C(=O)N[C@@H](CO)C(=O)N[C@@H](CO)C(=O)N[C@H](C(=O)N[C@@H](CC(N)=O)C(=O)N[C@H](C(=O)NCC(=O)N[C@@H](CO)C(=O)N[C@@H](Cc1c[nH]cn1)C(=O)N[C@H](C(=O)N[C@@H](Cc1ccc(O)cc1)C(N)=O)[C@@H](C)O)C(C)C)[C@@H](C)O, also called compound 45)
